In PMC9992173, “Mapping of the extracellular RBP4 ligand binding domain on the RBPR2 receptor for Vitamin A transport” (Frontiers in Cell and Developmental Biology, 2023):

B1: msRbpr2 (42) peptide (peptide)
peptide: HVRDKLDMFEDKLESYLTHMNETGTLTPIILQVKELISVTKG
notes: mouse RBPR2 (STRA6like) peptide of 42 residues with the SYL residues S294, Y295, L296; also called WT-msRBPR2 peptide; mouse RBPR2 peptide; source: synthetic peptide (Biomatik Corporation)
B2: msStra6 (40) peptide (peptide)
peptide: SVVPTVQKVRAGINTDVSYLLAGFGIVLSEDRQEVVELVK
notes: mouse STRA6 peptide of 40 residues with Tyr336, Gly340 and Gly342; also called msSTRA6 peptide; mouse STRA6 peptide; source: synthetic peptide (Biomatik Corporation)
B3: zebRBPR2 (34) peptide (peptide)
peptide: DKLDSLKDSLEQIALSCNQTESVFTYLIPSINEF
notes: zebrafish RBPR2 peptide of 34 residues; also called zebrafish RBPR2 peptide; source: synthetic peptide (Biomatik Corporation)

target: T1, Recombinant mouse RBP4 with 6XHis Tag (mouse, UniProt Q00724 19-201); experiment: SPR; mouse RBP4 amine-coupled to a CM5 chip (target 1,200 RU), Biacore S200; peptides as analytes, 0.8-26.6 uM; running buffer PBST (0.05% Tween20); 25 C; contact 120 s, dissociation 300 s; Kd from the site-specific binding fit Y=(Bmax*X)/(Kd+X); conditions: both partners purified
T1 construct: Amine-coupled to a CM5 chip for SPR; also called msRBP4; source: E. coli expression system, purified (nickel NTA column)

Kd [µM] | Binder
25.4 | B1
26.7 | B2
33.2 | B3
